Laboratory results: patent US20190225692A1 (JUNO THERAPEUTICS, published 2019)

Legend:
[1] = biological target: T1, HLA-A2/E6 (29-38) tetramer (human; HPV 16); assay: tetramer staining of clonal T cell line, flow cytometry
T1 construct: also called E6(29-38) peptide-MHC tetramer; E6(29-38)-loaded tetramer

[2] = biological target: HPV 16 E7(11-19) peptide in the context of HLA-A02:01 on target cells (human; HPV 16); assay: cell-based or functional assay
[3] = biological target: HPV 16 E6(29-38) peptide in the context of HLA-A02:01 on target cells (human; HPV 16); assay: cell-based or functional assay
[4] = biological target: T1, HLA-A2/E6 (29-38) tetramer; assay: tetramer flow cytometry; transfected Jurkat-derived cells, CD8+ population
Description: For transfection, the CD4+ and CD4+/CD8+ cell mixtures were transiently transfected with TCR-encoding plasmids and 48 hours after transfection, cells were assessed by flow cytometry for (1) binding of the target peptide in the context of an MHC molecule (HLA:A02:01) by staining with an E6(29-38) peptide- or an E7(11-19) peptide-MHC tetramer reagent, and/or (2) CD8+ independent binding of the target by co-staining the tetramer-labeled cells with an anti-CD8 antibody.

B1: TCR 10 (native, expressed by clonal T cell line) (TCR, V domains shown)
V domain 1: RKEVEQDPGPFNVPEGATVAFNCTYSNSASQSFFWYRQDCRKEPKLLMSVYSSGNEDGRFTAQLNRASQYISLLIRDSKLSDSATYLCVVNFPSRGAGGTSYGKLTFGQGTILTVHP
V domain 2: DVKVTQSSRYLVKRTGEKVFLECVQDMDHENMFWYRQDPGLGLRLIYFSYDVKMKEKGDIPEGYSVSREKKERFSLILESASTNQTSMYLCASSLSLTGNYGYTFGSGTRLTVVE
binding result [1]: binds

B2: modified version of TCR 8 (codon optimized, cysteine modified) (TCR, V domains shown)
V domain 1: KQEVTQIPAALSVPEGENLVLNCSFTDSAIYNLQWFRQDPGKGLTSLLLIQSSQREQTSGRLNASLDKSSGRSTLYIAASQPGDSATYLCAVRPLGNTPLVFGKGTRLSVIA
V domain 2: KVTQSSRYLVKRTGEKVFLECVQDMDHENMFWYRQDPGLGLRLIYFSYDVKMKEKGDIPEGYSVSREKKERFSLILESASTNQTSMYLCASSLWGASTDTQYFGPGTRLTVLE
% CD8+/IC IFNγ+; transduced primary CD8+ T cells with T2 cells pulsed with 10 uM E7(11-19) peptide (control peptide), E:T 10:1, 4 h [2]: 11.4% | % CD8+/IC IFNγ+; transduced primary CD8+ T cells with T2 cells pulsed with 10 uM E6(29-38) peptide, E:T 10:1, 4 h [3]: 95%

B3: modified version of TCR 9 (codon optimized, cysteine modified) (TCR)
TCR alpha: AQKITQTQPGMFVQEKEAVTLDCTYDTSDPSYGLFWYKQPSSGEMIFLIYQGSYDQQNATEGRYSLNFQKARKSANLVISASQLGDSAMYFCAMRTAGGTSYGKLTFGQGTILTVHPNIQNPDPAVYQLRDSKSSDKSVCLFTDFDSQTNVSQSKDSDVYITDKCVLDMRSMDFKSNSAVAWSNKSDFACANAFNNSIIPEDTFFPSPESSCDVKLVEKSFETDTNLNFQNLSVIGFRILLLKVAGFNLLMTLRLWSS
TCR beta: NAGVTQTPKFRVLKTGQSMTLLCAQDMNHEYMYWYRQDPGMGLRLIHYSVGEGTTAKGEVPDGYNVSRLKKQNFLLGLESAAPSQTSVYFCASSYFGTAYEQYFGPGTRLTVTEDLKNVFPPEVAVFEPSEAEISHTQKATLVCLATGFYPDHVELSWWVNGKEVHSGVCTDPQPLKEQPALNDSRYCLSSRLRVSATFWQNPRNHFRCQVQFYGLSENDEWTQDRAKPVTQIVSAEAWGRADCGFTSESYQQGVLSATILYEILLGKATLYAVLVSALVLMAMVKRKDSRG
% CD8+/IC IFNγ+; transduced primary CD8+ T cells with T2 cells pulsed with 10 uM E7(11-19) peptide (control peptide), E:T 10:1, 4 h [2]: 19.5% | % CD8+/IC IFNγ+; transduced primary CD8+ T cells with T2 cells pulsed with 10 uM E6(29-38) peptide, E:T 10:1, 4 h [3]: 91.1% | % cells in E6 tet+/CD8+ quadrant [4]: 42.5% | % cells in E6 tet+/CD8- quadrant [4]: 0.051% | % cells in E6 tet-/CD8+ quadrant [4]: 55.6% | % cells in E6 tet-/CD8- quadrant [4]: 1.89%

B4: modified version of TCR 3 (codon optimized, cysteine modified) (TCR)
TCR alpha: AQKITQTQPGMFVQEKEAVTLDCTYDTSDQSYGLFWYKQPSSGEMIFLIYQGSYDEQNATEGRYSLNFQKARKSANLVISASQLGDSAMYFCAMREGRGFKTIFGAGTRLFVKANIQKPDPAVYQLRDSKSSDKSVCLFTDFDSQTNVSQSKDSDVYITDKCVLDMRSMDFKSNSAVAWSNKSDFACANAFNNSIIPADTFFPSPESSCDVKLVEKSFETDTNLNFQNLSVIGFRILLLKVAGFNLLMTLRLWSS
TCR beta: GAGVSQSPRYKVAKRGQDVALRCDPISGHVSLFWYQQALGQGPEFLTYFQNEAQLDKSGLPSDRFFAERPEGSVSTLKIQRTQQEDSAVYLCASSHLAGFTGELFFGEGSRLTVLEDLKNVFPPEVAVFEPSEAEISHTQKATLVCLATGFYPDHVELSWWVNGKEVHSGVCTDPQPLKEQPALNDSRYCLSSRLRVSATFWQNPRNHFRCQVQFYGLSENDEWTQDRAKPVTQIVSAEAWGRADCGFTSESYQQGVLSATILYEILLGKATLYAVLVSALVLMAMVKRKDSRG
% CD8+/IC IFNγ+; transduced primary CD8+ T cells with T2 cells pulsed with 10 uM E7(11-19) peptide (control peptide), E:T 10:1, 4 h [2]: 2.51% | % CD8+/IC IFNγ+; transduced primary CD8+ T cells with T2 cells pulsed with 10 uM E6(29-38) peptide, E:T 10:1, 4 h [3]: 95.1%
